One assay has as its target T1, human CD38 on cells (human, UniProt P28907 1-300).
T1 construct: The cell that carried CD38 is named under assay in each row; also called CD38 on Raji, RPMI8226, OPM2, CCRF-CEM, human erythrocytes, CD38 CHO-K1 transfectants
Description: FACS Scatchard on RPMI8226 cells.

Assay [1] has as its target T2, human CD38 Fc-fusion aa 45-300 (human, UniProt P28907 45-300).
T2 construct: Expressed in HEK293 behind a human Vkappa leader, which is left out here; also called CD38-Fc fusion protein; CD38 Fc-Fusion protein
In words: SPR (Biacore), Fab format.

In assay [2] the target is CD38 (antigen of the Bioveris affinity determination) (Homo sapiens (Human), UniProt P28907 45-300, limits assumed). Description: Bioveris, Fab format.

B1: MOR06187 Fab (Fab, V domains shown)
VH: QVQLVESGGGLVQPGGSLRLSCAASGFTFSSYYMNWVRQAPGKGLEWVSAISSNGDITYYADSVKGRFTISRDNSKNTLYLQMNSLRAEDTAVYYCARDLPLVYTGFAYWGQGTLVTVSS
VL: DIELTQPPSVSVAPGQTARISCSGDNLRHYYVYWYQQKPGQAPVLVIYGDSKRPSGIPERFSGSNSGNTATLTISGTQAEDEADYYCQTYTGGASLVFGGGTKLTVL
notes: Fab format
Consider B1, for which the EC50 in the assay with human CD38 on cells came out at 16.9 nM. The Kd in assay [1] came out at 12.5 nM; in assay [2], 0.0454 nM.

B2: MOR06188 Fab (Fab, V domains shown)
VH: QVQLVESGGGLVQPGGSLRLSCAASGFTFSSYYMNWVRQAPGKGLEWVSAISTNGWQTYYADSVKGRFTISRDNSKNTLYLQMNSLRAEDTAVYYCARDLPLVYTGFAYWGQGTLVTVSS
VL: DIELTQPPSVSVAPGQTARISCSGDNLRHYYVYWYQQKPGQAPVLVIYGDSKRPSGIPERFSGSNSGNTATLTISGTQAEDEADYYCQTYTGGASLVFGGGTKLTVL
notes: Fab format
In the assay with human CD38 on cells, B2 returned an EC50 of 22.7 nM. For the same molecule, the Kd in assay [1] came to 3.96 nM; in assay [2], 0.0593 nM.

B3: MOR06192 Fab (Fab, V domains shown)
VH: QVQLVESGGGLVQPGGSLRLSCAASGFTFSSYYMNWVRQAPGKGLEWVSVISPGGEAKSYADSVKGRFTISRDNSKNTLYLQMNSLRAEDTAVYYCARDLPLVYTGFAYWGQGTLVTVSS
VL: DIELTQPPSVSVAPGQTARISCSGDNLRHYYVYWYQQKPGQAPVLVIYGDSKRPSGIPERFSGSNSGNTATLTISGTQAEDEADYYCQTYTGGASLVFGGGTKLTVL
notes: Fab format
As to B3, the response with human CD38 on cells was half-maximal at 7.07 nM (EC50). For the same molecule, the Kd stood at 5.01 nM in assay [1] and 0.0747 nM in assay [2].

B4: MOR06197 Fab (Fab, V domains shown)
VH: QVQLVESGGGLVQPGGSLRLSCAASGFTFSSYYMNWVRQAPGKGLEWVSAISMDGVYKYYADSVKGRFTISRDNSKNTLYLQMNSLRAEDTAVYYCARDLPLVYTGFAYWGQGTLVTVSS
VL: DIELTQPPSVSVAPGQTARISCSGDNLRHYYVYWYQQKPGQAPVLVIYGDSKRPSGIPERFSGSNSGNTATLTISGTQAEDEADYYCQTYTGGASLVFGGGTKLTVL
notes: Fab format
B4 had an EC50 with human CD38 on cells of 6.92 nM. For the same molecule, the Kd in assay [1] is 4.81 nM; in assay [2], 0.0127 nM.

B5: MOR06189 Fab (Fab, V domains shown)
VH: QVQLVESGGGLVQPGGSLRLSCAASGFTFSSYYMNWVRQAPGKGLEWVSAINMIGNVTNYADSVKGRFTISRDNSKNTLYLQMNSLRAEDTAVYYCARDLPLVYTGFAYWGQGTLVTVSS
VL: DIELTQPPSVSVAPGQTARISCSGDNLRHYYVYWYQQKPGQAPVLVIYGDSKRPSGIPERFSGSNSGNTATLTISGTQAEDEADYYCQTYTGGASLVFGGGTKLTVL
notes: Fab format
B5: the EC50 with human CD38 on cells was 9.41 nM. Moreover, the Kd in assay [1] was determined as 4.95 nM; in assay [2], 0.0247 nM.

B6: MOR06190 Fab (Fab, V domains shown)
VH: QVQLVESGGGLVQPGGSLRLSCAASGFTFSSYYMNWVRQAPGKGLEWVSYINPNGMMTNYADSVKGRFTISRDNSKNTLYLQMNSLRAEDTAVYYCARDLPLVYTGFAYWGQGTLVTVSS
VL: DIELTQPPSVSVAPGQTARISCSGDNLRHYYVYWYQQKPGQAPVLVIYGDSKRPSGIPERFSGSNSGNTATLTISGTQAEDEADYYCQTYTGGASLVFGGGTKLTVL
notes: Fab format
Molecule B6 displayed an EC50 with human CD38 on cells of 11.7 nM. For the same molecule, the Kd in assay [1] was found to be 15.7 nM; in assay [2], 0.0488 nM.

B7: MOR06195 Fab (Fab, V domains shown)
VH: QVQLVESGGGLVQPGGSLRLSCAASGFTFSSYYMNWVRQAPGKGLEWVSAISGNGGHTYYADSVKGRFTISRDNSKNTLYLQMNSLRAEDTAVYYCARDLPLVYTGFAYWGQGTLVTVSS
VL: DIELTQPPSVSVAPGQTARISCSGDNLRHYYVYWYQQKPGQAPVLVIYGDSKRPSGIPERFSGSNSGNTATLTISGTQAEDEADYYCQTYTGGASLVFGGGTKLTVL
notes: Fab format
Regarding B7, the EC50 in the assay with human CD38 on cells amounted to 5.6 nM. The Kd in assay [1] turned out to be 4.52 nM; in assay [2], 0.0557 nM.

The values above are taken from US20240309109A1 (MorphoSys, published 2024).
